Measured values published in paper PMC3484135, “A Divalent Ion Is Crucial in the Structure and Dominant-Negative Function of ID Proteins, a Class of Helix-Loop-Helix Transcription Regulators” (PLoS ONE, 2012).

Target: the molecule itself
Assay: crystal structure; hanging drop vapor diffusion; protein 7 mg/ml in 50 mM Tris pH 8.0, 100 mM NaCl; precipitant 0.1 M MES pH 6.5, 2.0 M potassium acetate; 2.1Å native dataset, phased from a Se-Met SAD dataset

B1: ID2 HLH (residues 24–82) with a C-terminal 14 amino acid stabilising polypeptide (domain or fragment, human)
chain: RSKTPVDDPMSLLYNMNDCYSKLKELVPSIPQNKKVSKMEILQHVIDYILDLQIALDSHLKPSFLVQSGDIAS
notes: ID2, human, HLH domain, residues 24–82, cloned from full-length cDNA (Genecopoeia Z0585); C-terminal 14 amino acid polypeptide added to increase stability; Expressed from pDest-565 with a TEV site at the N terminus of ID2 HLH; The native crystal is called ID2-Nterm-HLH in the methods, and a Se-Met form (ID2-HLH-Se-Met) was used for phasing; also called wild type ID2; ID2 WT; source: E. coli …
stoichiometry N: 2
